Data set [1] is described as follows: Chelation of bismuth-213 by iTLC after Ac-225 labelling. It counts as physicochemical. Conditions: measured immediately and on Day 1 and Day 2 at room temperature. Here is the method:
In brief, an iTLC paper impregnated with a silica gel plate was cut to obtain 11 cm × 1 cm strips. Application point (1 cm), cut point (4 cm) and end of run point (10 cm) was marked and 2 µl of TAC was applied on to iTLC strips. The strips were developed in 3 mL mobile phase (0.1 M Citrate in 0.9%(v/v) NaCl pH 5.5) in LSC vials. […] When the liquid front had reached the marked end point, the strips were removed from the vials and placed on an aluminum foil to dry. The strips were cut in two at 4 cm: the shorter "application" half (A) and the longer "front" half (F). Each part was carefully folded and placed at the bottom of scintillation vials. […] The radiochemical purity (% RCP) of the samples (defined as [(radioactivity of application section)/(total radioactivity on strip)] × 100) was calculated. Table 2: Radiochemical purity (% RCP) of samples included in this invention.
Pelgi-macropa labeling was performed for 60 min at room temperature the two DOTA compounds were labeled at 60°C for 60 min. The percentage chelation of Bi-213 was determined using iTLC and measured on the Germanium Detector using the specific energy of Bi-213. After initial radiolabelling, compounds were measured immediately and on Day 1 and Day 2 after incubation at room temperature. […]

Data set [2] concerns the target T1, human glypican-3 (Homo sapiens, UniProt P51654). The data set can be described thus: ELISA, binding to recombinant human glypican-3. Conditions: compared to unconjugated Codrituzumab. As to the method:
The relevant antigen was immobilized on ELISA plate by absorption. The plate was washed (PBS with 0.1% Tween 20) and incubated with blocking buffer (PBS + 3% BSA) for 2 h ± 1 h to reduce unspecific binding. Relevant antibodies and ACCs diluted in assay buffer (PBS with 0.05% Tween 20 + 1.5% BSA). The blocking buffer was discarded, and the antibodies and ACCs and controls were applied in triplicates to the plate according to a plate set-up defined in each protocol. After incubation for 1 h ± 30 min at RT, the plate was washed. A horse radish peroxidase (HRP)-conjugated secondary antibody binding specifically to the primary mAb (anti-human IgG-HRP) was added to the plate. After incubation for 1 hour ± 30 min at RT, the plate was washed. A chromogenic substrate (2,2'-azino-bis (3-ethylbenzothiazoline-6-sulphonic acid) (ABTS)), for HRP leading to the formation of a green color was added to the plate and used for detection. The absorbance of the colored reaction product was measured with an absorbance plate reader, e.g. EnVision 2103 Multilabel Reader from Perkin Elmer, or iMark Microplate Absorbance Reader from Bio-Rad.
Absorbance against the log of the antibody concentration was plotted on the GraphPad Prism software. […]
On the technique in general: ELISA stands for enzyme-linked immunosorbent assay.

Data set [3] addresses T2, CEACAM5 (Homo sapiens, UniProt P06731).
T2 sequence (P06731 35-702): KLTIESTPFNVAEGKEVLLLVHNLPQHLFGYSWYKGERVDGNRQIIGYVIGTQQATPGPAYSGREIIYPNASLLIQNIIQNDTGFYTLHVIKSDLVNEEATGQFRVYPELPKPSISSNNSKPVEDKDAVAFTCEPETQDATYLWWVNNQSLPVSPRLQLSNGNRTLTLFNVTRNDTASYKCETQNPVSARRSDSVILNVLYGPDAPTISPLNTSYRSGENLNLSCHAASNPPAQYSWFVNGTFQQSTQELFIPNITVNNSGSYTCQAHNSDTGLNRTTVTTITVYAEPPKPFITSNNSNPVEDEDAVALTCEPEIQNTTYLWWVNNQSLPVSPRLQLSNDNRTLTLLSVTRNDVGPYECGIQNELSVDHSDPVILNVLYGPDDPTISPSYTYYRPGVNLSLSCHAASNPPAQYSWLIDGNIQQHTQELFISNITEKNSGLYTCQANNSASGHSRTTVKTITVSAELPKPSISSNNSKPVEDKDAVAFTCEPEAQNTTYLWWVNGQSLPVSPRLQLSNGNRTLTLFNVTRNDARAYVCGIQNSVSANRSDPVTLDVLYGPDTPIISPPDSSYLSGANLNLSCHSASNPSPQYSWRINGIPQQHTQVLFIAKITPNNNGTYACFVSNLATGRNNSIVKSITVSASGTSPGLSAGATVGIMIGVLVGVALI
The data set can be described thus: Immunoreactive fraction (IRF), binding to CEACAM5-coated beads. Conditions: 2 kBq/µg. As to the method:
Shortly after completion of the radiolabeling, the binding was assessed by measuring the fraction of radiolabeled antibody-chelator conjugate bound to relevant antigen coated magnetic beads (Thermo Fisher Scientific). In short, beads were placed in 2 mL Eppendorf tubes in 90 µL buffer (PBS/0.1% Tween 20/1% BSA). The radiolabeled compounds were diluted to 5 Bq/µL in buffer and 50 Bq were added to each bead-containing tube. The binding lasted for 60 min while shaking at 750 rpm at room temperature. After completion of the binding step, magnet (DynaMag-2) was used to separate the beads from […] supernatant. The radio activities in the supernatant and in the beads of each sample were measured using a high purity Germanium detector (Ortec). […] Total binding was defined as [(activity in beads […])/ (total activity)] × 100.
Shortly after completion of the radiolabeling, the binding of each sample to CEACAM5-coated M270-carboxy Dynabeads was determined.

A further data set concerns LK-2 lung cancer model. The data set can be described thus: In vivo antitumor efficacy in LK-2 model. Also on record: species or system mice. The source says: Female BALB/c nude mice were inoculated subcutaneously with 1×10^6 LK-2 cells. When tumors reached an average size of ~190mm^3, animals were randomized into treatment groups (n=12 per group) and treatment was started.
(**, P=0.0024. ****, […]) (Figure 28).

Data set [4] deals with C4-2, JIMT-1, T-47D, NCI-N87 and Calu-3. Conditions: 2 to 40 kBq/µg; 6 days; vs isotype control.
Description: In vitro cytotoxicity of Ac-225-ACC was determined in cell lines expressing different levels of relevant target receptors. Cells were seeded at an appropriate cell density in relevant cell media. One day after seeding, the radiolabeled compounds at the specific activity of 2-20 kBq/µg and radioactive concentration of 50-100 kBq/ml were titrated in parallel with a radiolabeled isotype control. Cells were incubated for 5-6 days. Cell viability was determined by cell counting using Hoechst and PI staining and analyzed on Operetta CLS High Content Analysis System (Perkin Elmer) or by ATP measurements using CellTiterGlo (Promega).
C4-2, JIMT-1, T-47D, NCI-N87 and Calu-3 were seeded at an appropriate cell density in the following cell media respectively: RPMI + 10% FBS + 1x MEM-NEAA + 1x HEPES + 1x Na Pyruvate; DMEM + 10% FBS; RPMI + 10% FBS + 10 µg/ml insulin; RPMI + 10% FBS; RPMI + 10% FBS. […] Cells were treated for 6 days and subsequentially cell viability was determined using CellTiterGlo (Promega).
The target in another data set is T3, human FolRa (Homo sapiens, UniProt P15328).
T3 construct: OUMS-23 and T-47D cells expressing human FolRa; endogenous in cells; host or cells: OUMS-23, T-47D
T3 sequence (P15328 25-257): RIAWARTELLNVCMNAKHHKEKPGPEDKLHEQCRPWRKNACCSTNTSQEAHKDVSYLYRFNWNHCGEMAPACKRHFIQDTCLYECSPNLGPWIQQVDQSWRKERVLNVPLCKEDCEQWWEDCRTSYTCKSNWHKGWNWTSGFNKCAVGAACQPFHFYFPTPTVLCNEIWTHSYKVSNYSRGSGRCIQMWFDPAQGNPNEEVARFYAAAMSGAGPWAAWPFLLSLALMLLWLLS
The data set can be described thus: Flow cytometry, cell surface binding on OUMS-23 and T-47D cells. Conditions: compared to the unconjugated antibody. As to the method:
(§1) The in vitro binding properties of antibody-chelator conjugates were assessed in various relevant cell lines and compared to their corresponding unconjugated antibody. Briefly, samples were diluted in buffer (PBS/3% FBS) and added to relevant cell lines. After completion of the binding step (60 min at 4°C), the cells were washed and incubated with secondary antibody conjugated with phycoerythrin to detect antibodies containing a human IgG Fc region. After 60 min at 4°C, the cells were washed, and fluorescence on the cells was determined by flow cytometry using Guava EasyCyte 8HT (Luminex).
Cell surface binding of Farletuzumab-macropa and Farletuzumab-DOTA was compared to unconjugated Farletuzumab and investigated by flow cytometry using OUMS-23 and T-47D cells expressing human FolRa (Figure 43).
Cell surface binding of Mirvetuximab-macropa and Mirvetuximab-DOTA was compared to unconjugated Mirvetuximab and investigated by flow cytometry using OUMS-23 and T-47D cells expressing human FolRa (Figure 47).

Data set [5] has as its target T2, CEACAM5. The data set can be described thus: Flow cytometry, cell surface binding on MKN-45 and HT-55 cells. Also on record: MKN-45 and HT-55 cells expressing human CEACAM5; endogenous in cells; host or cells: MKN-45, HT-55. Conditions: compared to unconjugated Labetuzumab. Here is the method: as §1
Cell surface binding of Labetuzumab-macropa was compared to unconjugated Labetuzumab and investigated by flow cytometry using MKN-45 and HT-55 cells expressing human CEACAM5 (Figure 19).
For orientation: Flow cytometry measures light scatter and fluorescence of single cells or particles in a stream.

Data set [6] has as its system GPC3 low-expressing hepatoma xenograft model Huh-7. Conditions: 168h; 500 kBq/kg IV, 0,75 mg/kg total protein. Here is the method:
Female RJ: NRMI-Foxn1nu/nu mice were inoculated with 2 × 10^6 Huh-7 cells on the right flank. Animals were pre-treated with 200 µg/mouse unspecific IgG2a antibody 24 h prior to hot dosing.

In data set [7] the test system is Huh-7 hepatoma expressing GPC3. The data set can be described thus: In vivo efficacy in Huh-7 xenograft. Also on record: species or system Mice. An excerpt:
• Figure 1. […] Size-exclusion UV chromatogram of Codrituzumab-macropa. • Figure 9. […] Size-exclusion UV chromatogram of Labetuzumab-macropa. • Figure 18. […] Internalization of Labetuzumab. […] Size-exclusion UV chromatogram of Sacituzumab-macropa. • Figure 25. […] Size-exclusion UV chromatogram of Indusatumab-macropa. • Figure 30. […] Size-exclusion UV chromatogram of Telisotuzumab-macropa. • Figure 36.

Data set [8] deals with HepG2 and Hep3B2.1-7 cells. Conditions: 2 MBq/mg, 5 kBq/ml; 6 days; vs radiolabeled isotype control.
Description: Cells were seeded at an appropriate cell density in relevant cell media. One day after seeding, the radiolabeled compounds at the specific activity of 2-20 kBq/µg and radioactive concentration of 50-100 kBq/ml were titrated in parallel with a radiolabeled isotype control. Cells were incubated for 5-6 days. Cell viability was determined by cell counting using Hoechst and PI staining and analyzed on Operetta CLS High Content Analysis System (Perkin Elmer) or by ATP measurements using CellTiterGlo (Promega).
HepG2 and Hep3B2.1-7 cells were seeded at an appropriate cell density in the cell media MEM + 10% FBS. HepG2 cells have higher GPC3 expression on the cell surface than Hep3B2.1-7 cells. One day after seeding the compounds at the specific activity of 2 MBq/mg and radioactive concentration of 5 kBq/ml were titrated in parallel with a radiolabeled isotype control. Cells were incubated for 6 days and subsequentially cell viability was determined using Hoechst and PI staining and analyzed on Operetta CLS High Content Analysis System (Perkin Elmer).
Data set [9] concerns the target T1, human glypican-3. The data set can be described thus: Flow cytometry, cell surface binding on Hep3B2 cells. Conditions: compared to unconjugated Codrituzumab. Further details: Hep3B2 cells expressing human glypican-3; endogenous in cells; host or cells: Hep3B2. Here is the method:
as §1
Cell surface binding of Codrituzumab-macropa was compared to unconjugated Codrituzumab and was investigated by flow cytometry using Hep3B2 cells expressing human glypican-3 (Figure 11).

The target of another data set is GUCY2C (Homo sapiens, UniProt P25092). The data set can be described thus: Flow cytometry, cell surface binding on CHO-GUCY2C cells. Further details: expressed in transfected cells; host or cells: CHO. Conditions: compared to unconjugated Indusatumab. As to the method: as §1
Cell surface binding of Indusatumab-macropa was compared to unconjugated Indusatumab and investigated by flow cytometry using CHO-GUCY2C cells expressing human GUCY2C (Figure 31).

Another data set deals with T4, human TROP2 (Homo sapiens, UniProt P09758).
T4 construct: JIMT-1, MCF-7, T-47D and ZR-75-1 cells expressing human TROP2; endogenous in cells; host or cells: JIMT-1, MCF-7, T-47D, ZR-75-1
T4 sequence (P09758 27-323): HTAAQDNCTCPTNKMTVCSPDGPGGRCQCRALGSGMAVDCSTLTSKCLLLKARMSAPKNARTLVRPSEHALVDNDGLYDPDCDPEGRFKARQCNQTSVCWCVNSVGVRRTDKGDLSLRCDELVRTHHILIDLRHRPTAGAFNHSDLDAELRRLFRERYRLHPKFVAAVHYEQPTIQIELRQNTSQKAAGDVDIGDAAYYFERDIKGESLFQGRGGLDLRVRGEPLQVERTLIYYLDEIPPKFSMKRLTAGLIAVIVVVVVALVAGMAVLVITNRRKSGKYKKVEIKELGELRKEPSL
The data set can be described thus: Flow cytometry, cell surface binding on JIMT-1, MCF-7, T-47D and ZR-75-1 cells. Conditions: compared to unconjugated Sacituzumab. Here is the method: as §1

Consider 14 substances from patent EP4552657A1, “RADIOPHARMACEUTICAL COMPLEXES AND COMBINATIONS” (priority 2023, dated 2025).

For “pelgifatamab-DOTA: pelgifatamab-DOTA (CAR 12.7) labeled with Actinium-225”, the “chelation of Bismuth-213” value in data set [1] is reported as “not chelated to the same extent with DOTA”.

For the substance Codrituzumab-DOTA, the EC50 entry with human glypican-3 [2] was “higher EC50 than unconjugated Codrituzumab”.

As to Ac-225-macropa-Labetuzumab, the results for the IRF in the data set with CEACAM5 [3] (33 µg beads), in the data set with CEACAM5 [3] (100 µg beads) and in the data set with CEACAM5 [3] (333 µg beads) were 43%, 88% and 97%, respectively.

In the case of “Ac-225-macropa-Sacituzumab: Ac-225 macropa complex bound to the anti-TROP2 monoclonal antibody Sacituzumab”, in the data set on LK-2 lung cancer model (100 or 200 kBq/kg, i.v., single dose day 0), the tumor growth inhibition result is reported as “strong tumor growth inhibition at both doses tested”. The “Antitumor activity compared to Trodelvy” value in the data set with LK-2 lung cancer model (Trodelvy 20 mg/kg i.v. day 0,7,14) is “significantly improved as compared to Trodelvy”. For the same substance, the cytotoxicity entry in data set [4] was “strong and specific cytotoxicity”.

Consider Farletuzumab-macropa, for which the EC50 entry with human FolRa is recorded as “comparable EC50 in both cell lines as unconjugated Farletuzumab”.

For the substance Labetuzumab-macropa, the EC50 result in the data set with CEACAM5 [5] is on record as “comparable EC50 as unconjugated Labetuzumab”.

Take Mirvetuximab-macropa: in the data set with human FolRa, the EC50 entry is “comparable EC50 in both cell lines as unconjugated Mirvetuximab”.

For the substance “Ac-225-macropa-Codrituzumab: Ac-225 macropa complex bound to the anti-GPC3 monoclonal antibody Codrituzumab”, the tumor uptake entry in [6] was “significantly higher tumor uptake at 168h compared to Ac-225-macropa-isotype-control”. Moreover, the anti-tumor activity result in data set [7] (500 kBq/kg single dose IV, repeat dose 250 kBq/kg on day 25, compared to isotype control) is reported as “significantly higher anti-tumor activity”. Further, the body weight loss entry in [7] (during the course of the study) is “No body weight loss”. Moreover, the cytotoxicity result in [8] is “strong and specific cytotoxicity”.

Take Codrituzumab-macropa: the EC50 result in the data set with human glypican-3 [9] is reported as “comparable EC50 as unconjugated Codrituzumab”.

For Indusatumab-macropa, the EC50 entry with GUCY2C was “comparable EC50 as unconjugated Indusatumab”.

With “Pelgi-macropa: actinium-225 complexed to a macropa chelator covalently linked to the fully human PSMA-targeting antibody pelgifatamab (CAR 0.8)”, the “chelation of Bismuth-213” value in data set [1] was “chelated by macropa”.

As for Mirvetuximab-DOTA [reference compound], the EC50 entry with human FolRa was “higher EC50 than unconjugated Mirvetuximab in OUMS-23 cells”.

As for Sacituzumab-macropa, the EC50 entry in the data set with human TROP2 is reported as “comparable EC50 as unconjugated Sacituzumab”.

As to Farletuzumab-DOTA [reference compound], the EC50 result in the data set with human FolRa is “higher EC50 than unconjugated Farletuzumab in both cell lines”.
